The target in assay [1] is T1, hIL2-DM-his (human, UniProt P60568 21-153).
T1 construct: expressed in ExpiCHO-S cells, nickel-column purified; also called hIL-2 mutein containing two point mutations K64G and N90R (with a his-tag); not shown: his-tag
The experiment in a line: BLI ForteBio, Ab on Protein A sensor. A general note: Biolayer interferometry detects binding as a change in optical thickness at a sensor tip.
Target sequence in this assay (P60568 21-153 K84G/N110R): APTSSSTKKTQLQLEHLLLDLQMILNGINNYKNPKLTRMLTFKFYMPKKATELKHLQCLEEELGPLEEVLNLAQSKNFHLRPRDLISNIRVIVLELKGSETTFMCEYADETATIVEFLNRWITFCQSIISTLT

Assay [2] addresses T1, hIL2-DM-his. The experiment in a line: BLI ForteBio, Ab on Protein A sensor. The source holds these as a separate data set.
Method: After each cycle of association and dissociation steps, the sensor was regenerated by 10 mM glycine buffer (pH 1.5) and then stated with the next cycle of detection. After the detection, the association rate constant and dissociation rate constant between the antibody and antigen were fitted and extrapolated using the analytical software, and the value of affinity constant (KD) was calculated.

Changes are numbered by the printed parent chain. Numbers in names are those of the source. Where two headings read alike, the source gives them in different places.

One may read the Kd as the constant that tells how readily two partners part at equilibrium. A low value points to a tighter complex. In general, koff refers to the first-order rate constant of dissociation. A low value points to a long-lived complex. Usually kon stands for the rate constant with which the complex forms. A higher kon goes with fast association.

B1: K3G1 (antibody, V domains shown)
VH: QVQLVQSGAEVKKPGATVKISCKVSGDTITAYYMHWVRQAPGQGLEWIGRIDPEDDSTKYAENFKGRVTITADTSTDTAYMELSSLRSEDTAVYYCTTVTFYYSRELRWFAYWGQGTLVTVSS
VL: DIVLTQSPATLSLSPGERATLSCQASQYIGNYLSWYQQKPGQAPRLLIYQATSLASGIPARFSGSRSGTDFTLTISSLEPEDFAVYYCLQHYSTPYTFGQGTKLEIK
As to B1, in the assay with hIL2-DM-his [1], the affinity, expressed as Kd, was 4.4 nM; the koff came to 0.00186 s⁻¹; the association rate constant (kon) was 424000 M⁻¹ s⁻¹.

B2: K4G10 (antibody, V domains shown)
VH: B1 VH with E54D, V99I, S104T
VL: B1 VL with Q50S
B2: in the assay with hIL2-DM-his [1], the Kd is 2.47 nM, the koff was found to be 0.000907 s⁻¹ and the kon amounted to 367000 M⁻¹ s⁻¹.

B3: K4G4 (antibody, V domains shown)
VH: B1 VH with Y102L
VL: B1 VL with Q50S
In the assay with hIL2-DM-his [1], B3 gave a Kd of 2.25 nM, a koff of 0.00082 s⁻¹ and a kon of 364000 M⁻¹ s⁻¹.

B4: K4G6 (antibody, V domains shown)
VH: B1 VH with E54D, V99I
VL: B1 VL with Q50S
In the assay with hIL2-DM-his [1], B4 yielded a Kd of 2.33 nM, a koff of 0.000994 s⁻¹ and a kon of 426000 M⁻¹ s⁻¹.

B5: hS4B6-H6K3-hu02 (antibody, V domains shown)
VH: B1 VH with I29F, M34L, G66N, D77N
VL: B1 VL with Y28D, Q50S, S56D, F71Y
notes: H6K3 with heavy chain I29F
Regarding B5, the binding result with hIL2-DM-his [2] was “no binding (tested: 100 nM (highest antigen concentration))”.

B6: K4G3 (antibody, V domains shown)
VH: B1 VH with E54D
VL: B1 VL with Q50S
In the assay with hIL2-DM-his [1], B6 had a Kd of 3.08 nM, an off-rate constant (koff) of 0.00108 s⁻¹ and a kon of 351000 M⁻¹ s⁻¹.

B7: hS4B6-H6K3-hu06 (antibody, V domains shown)
VH: B1 VH with M34L, G66S, D77N
VL: B1 VL with Y28D, Q50S, S56D, F71Y
notes: H6K3 with heavy chain N65S
Take B7: in the assay with hIL2-DM-his [2], the “Binding Response (nm)” value was determined as 0.135 nm, the Kd worked out at 52.5 nM, the koff came to 0.0192 s⁻¹ and the kon was 365000 M⁻¹ s⁻¹.

B8: hS4B6-H6K3-hu10 (antibody, V domains shown)
VH: B1 VH with M34L, G66N, D77N
VL: B1 VL with Y28D, Q50S, S56T, F71Y
notes: H6K3 with light chain D56T
On to B8, for which, in the assay with hIL2-DM-his [2], the “Binding Response (nm)” value is 0.172 nm, the Kd amounted to 28.3 nM, the koff is 0.0106 s⁻¹ and the kon worked out at 372000 M⁻¹ s⁻¹.

B9: K3G7 (antibody, V domains shown)
VH: B1 VH with V99I, S104T
VL: B1 VL
As to B9, in the assay with hIL2-DM-his [1], the Kd is 1.96 nM, the koff was found to be 0.000656 s⁻¹ and the kon turned out to be 336000 M⁻¹ s⁻¹.

B10: K4G12 (antibody, V domains shown)
VH: B1 VH with E54D, V99I, Y102L, S104T
VL: B1 VL with Q50S
As for B10, in the assay with hIL2-DM-his [1], the Kd was found to be 0.686 nM, the koff was 0.000326 s⁻¹ and the kon was determined as 476000 M⁻¹ s⁻¹.

B11: K4G2 (antibody, V domains shown)
VH: B1 VH with V99I
VL: B1 VL with Q50S
On to B11, for which, in the assay with hIL2-DM-his [1], the affinity, expressed as Kd, was 3.72 nM; the koff was 0.00143 s⁻¹; the on-rate (kon) is 384000 M⁻¹ s⁻¹.

B12: K4G7 (antibody, V domains shown)
VH: B1 VH with V99I, S104T
VL: B1 VL with Q50S
On to B12, for which, in the assay with hIL2-DM-his [1], the Kd came to 3.2 nM, the off-rate constant (koff) was 0.00127 s⁻¹ and the kon is 396000 M⁻¹ s⁻¹.

B13: K3G5 (antibody, V domains shown)
VH: B1 VH with S104T
VL: B1 VL
Turning to B13, in the assay with hIL2-DM-his [1], binding was put at a Kd of 3.72 nM, the koff was 0.00124 s⁻¹ and the on-rate constant (kon) turned out to be 334000 M⁻¹ s⁻¹.

B14: K3G3 (antibody, V domains shown)
VH: B1 VH with E54D
VL: B1 VL
In the assay with hIL2-DM-his [1], B14 showed a dissociation constant Kd of 3.34 nM, a koff of 0.00134 s⁻¹ and a kon of 400000 M⁻¹ s⁻¹.

B15: K3G10 (antibody, V domains shown)
VH: B1 VH with E54D, V99I, S104T
VL: B1 VL
B15: in the assay with hIL2-DM-his [1], the Kd turned out to be 1.46 nM, the off-rate constant (koff) was determined as 0.000585 s⁻¹ and the association rate constant (kon) turned out to be 402000 M⁻¹ s⁻¹.

B16: K4G5 (antibody, V domains shown)
VH: B1 VH with S104T
VL: B1 VL with Q50S
In the assay with hIL2-DM-his [1], B16 gave a Kd of 2.7 nM, a koff of 0.00113 s⁻¹ and an association rate constant (kon) of 418000 M⁻¹ s⁻¹.

B17: hS4B6-H6K3-hu08 (antibody, V domains shown)
VH: B1 VH with M34L, G66N
VL: B1 VL with Y28D, Q50S, S56D, F71Y
notes: H6K3 with heavy chain N76D; also called H6K3-huis
Take B17: in the assay with hIL2-DM-his [2], the “Binding Response (nm)” value is 0.127 nm, the equilibrium dissociation constant (Kd) is 58.1 nM, the koff stood at 0.0207 s⁻¹ and the kon was 356000 M⁻¹ s⁻¹.

B18: hS4B6-H6K3-hu05 (antibody, V domains shown)
VH: B1 VH with M34L, I48M, G66N, D77N
VL: B1 VL with Y28D, Q50S, S56D, F71Y
notes: H6K3 with heavy chain I48M
For B18, in the assay with hIL2-DM-his [2], the “Binding Response (nm)” value turned out to be 0.139 nm, the Kd came out at 39.4 nM, the koff was determined as 0.0152 s⁻¹ and the kon came out at 387000 M⁻¹ s⁻¹.

B19: K3G9 (antibody, V domains shown)
VH: B1 VH with V99I, Y102L, S104T
VL: B1 VL
In the assay with hIL2-DM-his [1], B19 registered a Kd of 1.49 nM, a koff of 0.000529 s⁻¹ and a kon of 356000 M⁻¹ s⁻¹.

B20: hS4B6-H6K3-hu03 (antibody, V domains shown)
VH: B1 VH with A31D, M34L, G66N, D77N
VL: B1 VL with Y28D, Q50S, S56D, F71Y
notes: H6K3 with heavy chain A31D
Turning to B20, the binding result in the assay with hIL2-DM-his [2] is reported as “no binding (tested: 100 nM (highest antigen concentration))”.

B21: hS4B6-H6K3-hu07 (antibody, V domains shown)
VH: B1 VH with M34L, D77N
VL: B1 VL with Y28D, Q50S, S56D, F71Y
notes: H6K3 with heavy chain N65G
For the molecule B21, in the assay with hIL2-DM-his [2], the “Binding Response (nm)” value stood at 0.13 nm, the Kd amounted to 45.3 nM, the koff is 0.0181 s⁻¹ and the kon was 400000 M⁻¹ s⁻¹.

B22: K3G8 (antibody, V domains shown)
VH: B1 VH with V99I, Y102L
VL: B1 VL
In the assay with hIL2-DM-his [1], B22 registered a Kd of 1.5 nM, a koff of 0.000446 s⁻¹ and a kon of 297000 M⁻¹ s⁻¹.

B23: hS4B6-H6K3-hu11 (antibody, V domains shown)
VH: B1 VH with M34L, G66N, D77N
VL: B1 VL with Y28D, Q50S, S56D, R66G, F71Y
notes: H6K3 with light chain R66G
In the case of B23, the binding result in the assay with hIL2-DM-his [2] was “no binding (tested: 100 nM (highest antigen concentration))”.

B24: hS4B6-H6K3-hu09 (antibody, V domains shown)
VH: B1 VH with M34L, G66N, D77N
VL: B1 VL with Y28D, Q50S, F71Y
notes: H6K3 with light chain D56S
Consider B24, for which, in the assay with hIL2-DM-his [2], the “Binding Response (nm)” value is 0.18 nm; the affinity, expressed as Kd, was 23.6 nM; the koff was 0.00867 s⁻¹; the kon turned out to be 367000 M⁻¹ s⁻¹.

B25: K3G4 (antibody, V domains shown)
VH: B1 VH with Y102L
VL: B1 VL
In the assay with hIL2-DM-his [1], B25 returned a dissociation constant (Kd) of 3 nM, an off-rate constant (koff) of 0.00122 s⁻¹ and a kon of 408000 M⁻¹ s⁻¹.

B26: hS4B6-H6K3-hu12 (antibody, V domains shown)
VH: B1 VH with M34L, G66N, D77N
VL: B1 VL with Y28D, Q50S, S56D
notes: H6K3 with light chain Y71F
With B26, in the assay with hIL2-DM-his [2], the “Binding Response (nm)” value came out at 0.152 nm, the Kd turned out to be 32.3 nM, the koff turned out to be 0.0174 s⁻¹ and the kon is 537000 M⁻¹ s⁻¹.

B27: hS4B6-H6K3-hu01 (antibody, V domains shown)
VH: B1 VH with D27Y, M34L, G66N, D77N
VL: B1 VL with Y28D, Q50S, S56D, F71Y
notes: H6K3 with heavy chain D27Y
With B27, the binding result with hIL2-DM-his [2] is listed as “no binding (tested: 100 nM (highest antigen concentration))”.

B28: hS4B6-H6K3-hu04 (antibody, V domains shown)
VH: B1 VH with G66N, D77N
VL: B1 VL with Y28D, Q50S, S56D, F71Y
notes: H6K3 with heavy chain L34M
On to B28, for which, in the assay with hIL2-DM-his [2], the “Binding Response (nm)” value was 0.143 nm, the Kd amounted to 34.6 nM, the koff stood at 0.0149 s⁻¹ and the kon worked out at 430000 M⁻¹ s⁻¹.

B29: K4G8 (antibody, V domains shown)
VH: B1 VH with V99I, Y102L
VL: B1 VL with Q50S
In the assay with hIL2-DM-his [1], B29 registered a Kd of 2.49 nM, a koff of 0.000856 s⁻¹ and a kon of 344000 M⁻¹ s⁻¹.

B30: K4G1 (antibody, V domains shown)
VH: B1 VH
VL: B1 VL with Q50S
In the assay with hIL2-DM-his [1], B30 gave a Kd of 4.28 nM, a koff of 0.00151 s⁻¹ and a kon of 352000 M⁻¹ s⁻¹.

B31: K3G6 (antibody, V domains shown)
VH: B1 VH with E54D, V99I
VL: B1 VL
With B31, in the assay with hIL2-DM-his [1], the Kd turned out to be 2.13 nM, the koff is 0.000844 s⁻¹ and the kon was determined as 397000 M⁻¹ s⁻¹.

B32: K3G2 (antibody, V domains shown)
VH: B1 VH with V99I
VL: B1 VL
On to B32, for which, in the assay with hIL2-DM-his [1], the Kd turned out to be 2.91 nM, the koff was 0.00118 s⁻¹ and the kon is 407000 M⁻¹ s⁻¹.

For the origin of these results see patent US20250346644A1 (LATTICON SUZHOU BIOPHARMACEUTICALS, published 2025).
